Test results from US20160146830A1 (published 2016).

Target: Tetanus toxoid (TT) (UniProt P04958 2-1315)
Experiment: competitive ELISA, IgG equilibrated with soluble TT, TT-coated plate

Tetanus toxoid (TT), sequence (P04958 2-457 limits assumed, chain 1 of 2): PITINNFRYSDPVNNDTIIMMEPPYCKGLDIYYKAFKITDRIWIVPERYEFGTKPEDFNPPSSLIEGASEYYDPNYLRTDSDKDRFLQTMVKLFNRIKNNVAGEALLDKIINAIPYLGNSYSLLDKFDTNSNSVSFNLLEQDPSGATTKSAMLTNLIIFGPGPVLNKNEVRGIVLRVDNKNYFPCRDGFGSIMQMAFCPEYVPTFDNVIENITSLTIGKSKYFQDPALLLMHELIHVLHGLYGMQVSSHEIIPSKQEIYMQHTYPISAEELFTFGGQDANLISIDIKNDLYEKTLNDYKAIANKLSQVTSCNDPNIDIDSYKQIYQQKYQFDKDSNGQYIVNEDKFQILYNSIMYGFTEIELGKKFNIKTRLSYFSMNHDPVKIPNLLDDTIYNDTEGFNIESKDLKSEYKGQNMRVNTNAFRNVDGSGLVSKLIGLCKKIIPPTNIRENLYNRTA
Tetanus toxoid (TT), sequence (P04958 458-1315 limits assumed, chain 2 of 2): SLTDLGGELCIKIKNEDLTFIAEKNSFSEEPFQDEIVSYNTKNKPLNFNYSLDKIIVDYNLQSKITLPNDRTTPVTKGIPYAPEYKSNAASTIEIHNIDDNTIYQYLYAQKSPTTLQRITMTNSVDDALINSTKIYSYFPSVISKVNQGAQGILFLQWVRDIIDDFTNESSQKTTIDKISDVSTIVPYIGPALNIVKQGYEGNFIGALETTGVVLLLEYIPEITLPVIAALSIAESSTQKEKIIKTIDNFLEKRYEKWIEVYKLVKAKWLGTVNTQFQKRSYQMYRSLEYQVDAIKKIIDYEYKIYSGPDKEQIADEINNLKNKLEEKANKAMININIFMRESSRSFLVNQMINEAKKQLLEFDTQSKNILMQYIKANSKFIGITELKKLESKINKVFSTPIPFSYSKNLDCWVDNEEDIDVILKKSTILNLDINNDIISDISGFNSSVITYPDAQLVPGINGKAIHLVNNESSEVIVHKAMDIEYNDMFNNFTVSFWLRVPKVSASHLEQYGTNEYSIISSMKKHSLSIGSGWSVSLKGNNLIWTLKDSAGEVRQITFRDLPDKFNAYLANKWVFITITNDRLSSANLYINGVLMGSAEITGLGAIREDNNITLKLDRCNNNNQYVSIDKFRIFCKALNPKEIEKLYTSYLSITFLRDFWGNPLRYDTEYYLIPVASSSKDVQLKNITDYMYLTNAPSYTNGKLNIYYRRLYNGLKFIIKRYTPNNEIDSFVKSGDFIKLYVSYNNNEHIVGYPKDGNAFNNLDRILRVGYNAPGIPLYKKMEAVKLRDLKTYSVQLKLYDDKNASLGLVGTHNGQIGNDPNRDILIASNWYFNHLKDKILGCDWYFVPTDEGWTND

Binder	Kd
TT-1 (antibody, V domains shown, also called VH-1/VL-1) VH: QVQLVESGGGLVQPGRSLRLSCVGSGFSFESYAMHWVRLAPGKGLEWVAGISWDSGAKGNADSVEGRFTISRDNAKKSVYLEMRSLRPEDTAFYYCAKAPIIGPKYYFYMDVWGKGTSVTVSS VL: EIVLTQSPGTLSLSPGERATLSCRASQRVKSSYLAWYQQKPGQAPRLLIYDASTRATGIPDRFSGSGSGTDFTLTISRLEPEDVAVYYCQQYGTSRGTFGQGTRLEIK	1.6 nM
TT-10 (antibody, V domains shown, also called VH-11/VL-11) VH: QVQLQESGGGLVQPGRSLRLSCVGSGFSFESYAMHWVRQAPGKGLEWVAGISWDSGAKGNADSVEGRFTISRDNAKKSLYLEMRSLRPEDTAFYYCAKAPIIGPKHYFYMDVWGKGTSVTVSS VL: EIVLTQSPGTLSLSPGERATLSCRASQRVKSSYLAWYQQKPGQAPRLLIYDASTRATGIPDRFSGSGSGTDFTLTISRLEPEDVAVYYCQQYGTSRGTFGQGTRLEIK	0.9 nM
TT-6 (antibody, V domains shown, also called VH-7/VL-7) VH: QVQLVESGSEVRKPGASVKVSCKASGYTFSRYGLTWVRQAPGQGLEWMGWISGYNSNTNYAPKFQGRVTMTTDTSTNTAYLELRSLRSNDTAVYYCARDYFHSGSQYFFDYWGQGSLVTVSS VL: DIRLTQSPSSLSASVGDRVTITCRSSQTISTYLNWYQQKPGEAPKILIYAASSLHTGVPSRFSGSGSGTDFTLTITSLQPEDFAIYHCQQSYSTPYTFGQGTKVEIK	0.6 nM
TT-7 (antibody, V domains shown, also called VH-8/VL-8) VH: QVQLQESGPGLVRPSQTLSLTCTVSGDSISDGDSFWSWIRQPPGKGPEWIGYISSSGTTYYYPSLRGRLTVSLDASKNQFSLSLTSVTAADTAVYYCARARNYGFPHFFDFWGRGTLVTVSS VL: DIQMTQSPSTLSASVGDSVTITCRASQSITRWLAWYQQKPGKAPKLLIYKASLLESGVPSRFSGSGSGTEFTLTISSLQPDDFATYYCQQYNSYSPWTFGPGTKLEIK	0.5 nM
TT-8 (antibody, V domains shown, also called VH-9/VL-9) VH: QVQLVESGGGLVKPGGSLRLSCAASGFSFSHYSMNWIRQAPGKGLEWVASITSGSTNMVYADSLRARFSISRDNAKNSLYLQMDSLSAEDTAVYYCARKGMGHYFDFWGQGTPVTVSS VL: QTVVTQEPSSSVSLGGTVTLTCGLTSGPVTGAYYPSWHQQTPGQAPRTLIYNTYSLSSGVSDRFSGSILGNKAALTISGAQADDESDYYCVLYMGSGIWMFGGGTKLTVL	2.8 nM
TT-9 (antibody, V domains shown, also called VH-10/VL-10) VH: QVQLQESGPGLVKPSGTLSLTCAVSGVPVYTGHWWTWVRQAPGKGLEWIGEIHHTVTTNYNPSLRSRVTISEDRSKNQISLTLQSVTAADTAVYFCARGEDCVGGSCYSADWGQGILVTVSS VL: EIVLTQSPSSLSASVGDRVTITCRASQNIHLFLNWYQQRPGRVPKVLIYATSTLQSGVPSRFSGSGSGTDFTLTISSVQPEDFATYYCQQSFSTPRTFGPGTKVEIK	0.1 nM
TT-11 (antibody, V domains shown, also called VH-13/VL-13) VH: QVQLVESGAEVKKPGASVRVSCKASGYTFTNYGLAWVRQAPGQGLEWMGWITVYNGHTSYAQKFHDRVTMTTDTSTRTAYLEVRNLGSDDTAVYYCARKPRFYYDTSAWFEFWGQGTLVTVSS VL: DIVLTQSPETLSVSPGESATLSCRASQSVSTDLAWYQHKPGQAPRLLIWGASTRATGIPARFSGSGSGTEFTLTISSLQSEDFAICFCHQYNNWPTFGQGTKVEIK	1.6 nM
TT-2 (antibody, V domains shown, also called VH-2/VL-2) VH: QVQLVQSGGGVKQPGGSLRLSCTASGFTFEDFNMHWVRQAPGKGLEWISYISGDGDRTHYSDSVRGRFTISRDNSGNSLYLQMTSLRTEDAGFYYCGKSYDYIRENLDSWGQGTLVTVSS VL: QPGLTQPPSVSVAPGQTARITCGGNNIGSRHVHWYQQRPGQAPVLVVYDDDARPSGISGRFSGSNSGNTATLTISWVEAGDEADYYCQVSDSGREWGVFGSGTKVTVL	22.6 nM
TT-3 (antibody, V domains shown, also called VH-3/VL-3) VH: QVQLVQSGAEVKKPGASVRVSCKASGYTFTRYAMHWVRQAPGQRPEWMGWINVDNGNTEYSQKFQGRLTITRDTSASTAYMELSSLTSDDTAVYYCAKDRVRVVQAATTLDFWGQGTLVTVSS VL: EIVLTQSPGTLSLSPGERATLSCRASQTIPSKYLGWYQQKLGQAPRLLIYGASSRATGIPDRFSGSGSGTDFTLTISRLEPEDFAVYYCQQYGSLSAITFGQGTRLEIK	3.7 nM
TT-4 (antibody, V domains shown, also called VH-4/VL-4) VH: QVTLKESGPALVKPTQTLTLTCTFSGFSLLSSGMCVSWIRQPPGKALEWLARIDWDEKKYYSPSLKTRLTISKDTSKDQVVLTMTNMDPLDTAMYSCARGVVPAGIPFDFWGQGIMVTVSS VL: ETTLTQSPSTLPASVGDRVTITCRASENINSWLAWYQQKPGKAPKILIYRASNLESGVPSRFSGSGSGTEFTLTISSLQPDDFATYYCQHFDKYFSWTFGHGTKVEIK	3.2 nM
TT-5 (antibody, V domains shown, also called VH-5/VL-5) VH: QVQLQESGPGLVKPSETLSLTCTVSGGSINSYYWSWIRQSPGKGLEWIGYIYYTGINKYNPSLKSRVTISMDTSKRQVSLKVTSLTPADTAVYFCARLHPTCASTRCPENYGMDVWGQGTTVAVSS VL: DIRLTQSPSSLSASVGDRVTITCRSSQTISTYLNWYQQKPGEAPKILIYAASSLHTGVPSRFSGSGSGTDFTLTITSLQPEDFAIYHCQQSYSTPYTFGQGTKVEIK	18.1 nM
